Laboratory results reported in patent US20240173442A1 (Hoffmann-La Roche, published 2024).

T1: carcinoembryonic antigen (CEA) (human, UniProt P06731 35-685)
T1 construct: whole, on cells; also called CEACAM5; Carcinoembryonic antigen-related cell adhesion molecule 5
T1 sequence (looked up): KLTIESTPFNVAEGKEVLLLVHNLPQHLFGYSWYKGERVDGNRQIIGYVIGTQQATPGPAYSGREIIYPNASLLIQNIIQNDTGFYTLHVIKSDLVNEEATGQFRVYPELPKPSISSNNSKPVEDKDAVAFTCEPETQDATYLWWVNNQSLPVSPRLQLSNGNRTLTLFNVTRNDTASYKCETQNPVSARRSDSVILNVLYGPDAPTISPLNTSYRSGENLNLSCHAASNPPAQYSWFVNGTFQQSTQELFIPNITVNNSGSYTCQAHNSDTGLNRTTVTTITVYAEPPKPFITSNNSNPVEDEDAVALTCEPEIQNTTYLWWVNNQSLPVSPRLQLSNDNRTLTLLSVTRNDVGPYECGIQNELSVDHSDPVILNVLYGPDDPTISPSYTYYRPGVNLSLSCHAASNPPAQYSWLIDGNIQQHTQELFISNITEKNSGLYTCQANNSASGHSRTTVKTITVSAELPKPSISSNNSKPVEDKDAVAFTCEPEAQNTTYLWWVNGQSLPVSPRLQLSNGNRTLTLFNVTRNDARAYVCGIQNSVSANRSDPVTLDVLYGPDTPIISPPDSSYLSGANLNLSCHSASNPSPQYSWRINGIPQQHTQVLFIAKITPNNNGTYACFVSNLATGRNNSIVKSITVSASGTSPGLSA


Biological target: T1, carcinoembryonic antigen (CEA)
Experiment: FACS on MKN-45 cells, detection with anti-huIgG(H+L)-Alexa488
Experimental: MKN-45 cells were detached from the culture bottle using Trypsin and were counted using a Casy cell counter. After pelleting at 4° C., 300 g the cells were resuspended in FACS Buffer (2.5% FCS in PBS), adjusted to 2.0E+06 cells/mL dispensed to 96-well PP V-bottom-Platte (25 μL/well=5.0E+04Zellen/well).
The CEA specific SPLIT antibodies (P1AF0712 or P1AF0713 respectively) were adjusted to 40 μg/mL in FACS buffer, resulting in a final concentration of 10 μg/mL. Both antibodies were added to the cells either separated followed by buffer or combined and incubated at 4° C. for 1 h. The cells were then washed twice in FACS buffer. After washing, the cells were resuspended in 50 μL FACS-buffer containing secondary antibody (<huIgG(H+L)>-Alexa488, c=10 μg/mL) and incubated 1h at 4° C. The cells were then washed twice in FACS buffer and resuspended in 70 μl/well FACS buffer for measurement using a FACS Canto (BD, Pharmingen).

Binder	EC50 [µg/mL]
P1AF0712 (CEA-split-DOTA-VL, CH1A1A) (antibody, human IgG1, kappa, L234A L235A, also called CEA specific SPLIT antibody; P6_A) heavy 1: not shown heavy 2: QVQLVQSGAEVKKPGASVKVSCKASGYTFTEFGMNWVRQAPGQGLEWMGWINTKTGEATYVEEFKGRVTFTTDTSTSTAYMELRSLRSDDTAVYYCARWDFAYYVEAMDYWGQGTTVTVSSASTKGPSVFPLAPSSKSTSGGTAALGCLVKDYFPEPVTVSWNSGALTSGVHTFPAVLQSSGLYSLSSVVTVPSSSLGTQTYICNVNHKPSNTKVDKKVEPKSCDKTHTCPPCPAPEAAGGPSVFLFPPKPKDTLMISRTPEVTCVVVDVSHEDPEVKFNWYVDGVEVHNAKTKPREEQYNSTYRVVSVLTVLHQDWLNGKEYKCKVSNKALGAPIEKTISKAKGQPREPQVCTLPPSRDELTKNQVSLSCAVKGFYPSDIAVEWESNGQPENNYKTTPPVLDSDGSFFLVSKLTVDKSRWQQGNVFSCSVMHEALHNHYTQKSLSLSPGGGGGSGGGGSGGGGSGGGGSQAVVIQESALTTPPGETVTLTCGSSTGAVTASNYANWVQEKPDHLFTGLIGGHNNRPPGVPARFSGSLIGDKAALTIAGTQTEDEAIYFCALWYSDHWVIGGGTKLTVL light: DIQMTQSPSSLSASVGDRVTITCKASAAVGTYVAWYQQKPGKAPKLLIYSASYRKRGVPSRFSGSGSGTDFTLTISSLQPEDFATYYCHQYYTYPLFTFGQGTKLEIKRTVAAPSVFIFPPSDEQLKSGTASVVCLLNNFYPREAKVQWKVDNALQSGNSQESVTEQDSKDSTYSLSSTLTLSKADYEKHKVYACEVTHQGLSSPVTKSFNRGEC	2.7
P1AF0713 (CEA-split-DOTA-VH-AST, CH1A1A) (antibody, human IgG1, kappa, L234A L235A, also called CEA specific SPLIT antibody; P6_B) heavy 1: QVQLVQSGAEVKKPGASVKVSCKASGYTFTEFGMNWVRQAPGQGLEWMGWINTKTGEATYVEEFKGRVTFTTDTSTSTAYMELRSLRSDDTAVYYCARWDFAYYVEAMDYWGQGTTVTVSSASTKGPSVFPLAPSSKSTSGGTAALGCLVKDYFPEPVTVSWNSGALTSGVHTFPAVLQSSGLYSLSSVVTVPSSSLGTQTYICNVNHKPSNTKVDKKVEPKSCDKTHTCPPCPAPEAAGGPSVFLFPPKPKDTLMISRTPEVTCVVVDVSHEDPEVKFNWYVDGVEVHNAKTKPREEQYNSTYRVVSVLTVLHQDWLNGKEYKCKVSNKALGAPIEKTISKAKGQPREPQVCTLPPSRDELTKNQVSLSCAVKGFYPSDIAVEWESNGQPENNYKTTPPVLDSDGSFFLVSKLTVDKSRWQQGNVFSCSVMHEALHNHYTQKSLSLSPG heavy 2: not shown light: DIQMTQSPSSLSASVGDRVTITCKASAAVGTYVAWYQQKPGKAPKLLIYSASYRKRGVPSRFSGSGSGTDFTLTISSLQPEDFATYYCHQYYTYPLFTFGQGTKLEIKRTVAAPSVFIFPPSDEQLKSGTASVVCLLNNFYPREAKVQWKVDNALQSGNSQESVTEQDSKDSTYSLSSTLTLSKADYEKHKVYACEVTHQGLSSPVTKSFNRGEC	2.3
